Results from the supplement of paper PMC6379048.

What was measured:
Assay in all cases: EC50 of free RNA motif oligo competing protein binding to immobilised probe
[1] = target: CXorf57 (UniProt Q6NSI4)
Outline: (§1)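 Free RNA oligos (0 nM to 30 μM) competed for 1 h at 4°C in HEK293-FT lysate (2.5 mg protein/well) before a 30 min, 4°C pulldown with the same oligos on NHS-Sepharose beads. Bound proteins were quantified by label-free LC-MS/MS and normalised to the control. Kd was found by multiplying EC50, from a four-parameter log-logistic fit, by a protein-dependent depletion factor.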

[2] = target: T1, UPF1 (UniProt Q92900)
T1 sequence: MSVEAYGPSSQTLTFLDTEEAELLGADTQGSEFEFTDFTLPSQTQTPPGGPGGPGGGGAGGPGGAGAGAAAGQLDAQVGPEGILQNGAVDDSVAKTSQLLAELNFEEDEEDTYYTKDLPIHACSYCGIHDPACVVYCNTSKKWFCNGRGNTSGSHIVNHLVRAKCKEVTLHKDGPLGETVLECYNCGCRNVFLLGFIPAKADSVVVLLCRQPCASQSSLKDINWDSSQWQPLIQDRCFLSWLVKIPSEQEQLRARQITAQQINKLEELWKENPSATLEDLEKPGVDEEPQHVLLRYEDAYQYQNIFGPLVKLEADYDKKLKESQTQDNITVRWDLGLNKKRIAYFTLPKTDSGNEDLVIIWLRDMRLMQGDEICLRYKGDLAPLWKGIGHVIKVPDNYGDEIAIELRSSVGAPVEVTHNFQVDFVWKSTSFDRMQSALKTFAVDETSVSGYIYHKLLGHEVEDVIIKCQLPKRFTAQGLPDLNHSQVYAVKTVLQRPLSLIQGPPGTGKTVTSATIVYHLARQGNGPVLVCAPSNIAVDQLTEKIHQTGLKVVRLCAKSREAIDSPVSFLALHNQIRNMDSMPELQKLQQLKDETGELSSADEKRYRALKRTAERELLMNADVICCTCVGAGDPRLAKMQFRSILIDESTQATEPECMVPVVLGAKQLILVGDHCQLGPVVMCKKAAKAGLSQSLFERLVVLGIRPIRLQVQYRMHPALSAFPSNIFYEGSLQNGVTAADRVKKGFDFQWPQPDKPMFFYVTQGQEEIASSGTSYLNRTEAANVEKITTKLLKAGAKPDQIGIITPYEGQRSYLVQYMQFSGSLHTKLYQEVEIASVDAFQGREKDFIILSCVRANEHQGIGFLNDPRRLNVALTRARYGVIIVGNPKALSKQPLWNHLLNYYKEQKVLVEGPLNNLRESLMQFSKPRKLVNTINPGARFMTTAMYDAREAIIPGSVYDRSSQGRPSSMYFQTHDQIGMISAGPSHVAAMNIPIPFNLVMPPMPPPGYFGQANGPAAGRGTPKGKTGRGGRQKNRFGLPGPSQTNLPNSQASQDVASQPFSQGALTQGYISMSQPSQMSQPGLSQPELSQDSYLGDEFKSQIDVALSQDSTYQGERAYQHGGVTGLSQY
Outline: as §1

[3] = target: RPL7 (UniProt P18124)
Outline: as §1

[4] = target: T2, YTHDC2 (UniProt Q9H6S0)
T2 sequence: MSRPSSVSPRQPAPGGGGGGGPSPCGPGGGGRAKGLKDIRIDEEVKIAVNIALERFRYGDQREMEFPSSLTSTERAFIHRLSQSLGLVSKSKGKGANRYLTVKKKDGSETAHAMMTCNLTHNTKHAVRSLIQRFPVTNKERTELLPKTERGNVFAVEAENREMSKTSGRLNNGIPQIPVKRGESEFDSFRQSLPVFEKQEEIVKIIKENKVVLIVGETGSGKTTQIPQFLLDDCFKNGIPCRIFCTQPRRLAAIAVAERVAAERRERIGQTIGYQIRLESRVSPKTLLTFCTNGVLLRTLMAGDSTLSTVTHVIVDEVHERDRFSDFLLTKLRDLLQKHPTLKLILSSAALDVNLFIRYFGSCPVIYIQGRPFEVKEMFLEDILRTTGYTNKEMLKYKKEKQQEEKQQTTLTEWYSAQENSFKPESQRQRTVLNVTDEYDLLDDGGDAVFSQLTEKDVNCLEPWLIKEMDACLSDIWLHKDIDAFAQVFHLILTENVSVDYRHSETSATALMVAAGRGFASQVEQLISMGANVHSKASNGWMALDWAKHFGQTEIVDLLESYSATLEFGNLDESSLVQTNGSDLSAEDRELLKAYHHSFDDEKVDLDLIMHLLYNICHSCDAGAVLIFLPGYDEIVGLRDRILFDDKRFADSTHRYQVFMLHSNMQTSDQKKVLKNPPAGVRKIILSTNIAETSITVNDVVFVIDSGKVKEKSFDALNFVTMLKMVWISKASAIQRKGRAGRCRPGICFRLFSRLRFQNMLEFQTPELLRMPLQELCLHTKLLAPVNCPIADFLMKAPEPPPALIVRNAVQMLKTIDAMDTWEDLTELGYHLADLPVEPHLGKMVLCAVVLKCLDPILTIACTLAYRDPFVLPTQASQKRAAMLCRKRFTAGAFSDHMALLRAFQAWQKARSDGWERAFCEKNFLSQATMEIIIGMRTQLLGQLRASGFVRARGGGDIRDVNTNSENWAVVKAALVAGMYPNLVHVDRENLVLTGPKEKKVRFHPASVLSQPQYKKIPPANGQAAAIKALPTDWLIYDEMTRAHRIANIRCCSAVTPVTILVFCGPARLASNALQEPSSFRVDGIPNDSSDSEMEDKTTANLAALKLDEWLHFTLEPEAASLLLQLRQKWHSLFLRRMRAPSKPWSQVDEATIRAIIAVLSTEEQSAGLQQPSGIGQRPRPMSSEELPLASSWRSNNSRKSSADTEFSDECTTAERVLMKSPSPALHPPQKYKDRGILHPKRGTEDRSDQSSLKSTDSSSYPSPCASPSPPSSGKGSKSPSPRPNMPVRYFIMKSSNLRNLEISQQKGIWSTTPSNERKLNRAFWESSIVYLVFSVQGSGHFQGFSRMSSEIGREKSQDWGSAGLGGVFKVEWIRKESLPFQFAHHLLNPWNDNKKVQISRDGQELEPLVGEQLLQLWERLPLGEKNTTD
Outline: as §1

CXorf57, sequence (Q6NSI4 whole entry): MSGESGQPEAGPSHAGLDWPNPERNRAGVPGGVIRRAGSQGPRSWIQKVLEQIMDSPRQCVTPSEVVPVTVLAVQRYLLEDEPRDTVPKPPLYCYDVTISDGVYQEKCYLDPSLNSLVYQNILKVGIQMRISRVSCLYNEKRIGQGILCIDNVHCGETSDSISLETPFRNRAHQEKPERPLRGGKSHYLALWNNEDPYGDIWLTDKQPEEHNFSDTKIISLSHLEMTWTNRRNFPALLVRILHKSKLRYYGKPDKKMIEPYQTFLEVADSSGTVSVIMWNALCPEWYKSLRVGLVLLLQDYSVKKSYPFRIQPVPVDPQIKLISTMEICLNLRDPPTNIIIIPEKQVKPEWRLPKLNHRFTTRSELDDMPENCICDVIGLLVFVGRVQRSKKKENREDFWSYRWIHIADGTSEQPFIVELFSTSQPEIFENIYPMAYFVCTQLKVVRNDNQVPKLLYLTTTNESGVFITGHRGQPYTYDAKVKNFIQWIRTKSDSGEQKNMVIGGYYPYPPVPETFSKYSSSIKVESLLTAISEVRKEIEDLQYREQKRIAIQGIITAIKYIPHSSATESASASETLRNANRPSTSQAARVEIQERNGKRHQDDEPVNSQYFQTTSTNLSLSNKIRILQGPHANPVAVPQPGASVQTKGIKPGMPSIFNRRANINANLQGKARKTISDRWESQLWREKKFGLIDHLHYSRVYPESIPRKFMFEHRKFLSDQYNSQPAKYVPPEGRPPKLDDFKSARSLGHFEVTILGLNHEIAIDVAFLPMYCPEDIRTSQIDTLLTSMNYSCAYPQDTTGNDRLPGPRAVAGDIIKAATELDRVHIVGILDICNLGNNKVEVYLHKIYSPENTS

Sequence	EC50 [1] [µM]	EC50 [2] [µM]	EC50 [3] [µM]	EC50 [4] [µM]
AAUAAA	3.56	4.9	6.98	
CUGUCCU				2.24
